The text below walks through data of patent US20230391893A1 (published 2023).

In this experiment the target is dICB-huHF. The experiment can be described thus: flow cytometry; LLC1 cells. For orientation: A flow cytometer gives signals particle by particle.

The term Kd denotes the concentration at which binding is half-saturated. Read a high Kd as lower affinity.

B1: LLC1 (receptor)
chain: TIDTKRNISAEEGGSVILQCHFSSDTAEVTQVDWKQQDQLLAIYSVDLGWHVASVFSDRVVPGPSLGLTFQSLTMNDTGEYFCTYHTYPGGIYKGRIFLKVQESSDDRNGLAQFQTAPLG
B1 gave a dissociation constant (Kd) of 32.3 nM. That is a double-digit nanomolar value.
